Biological target: Phospholipase A1 (PlaA1) from Serratia marcescens, purified (Serratia marcescens)
Assay: SPR; Biacore T200; PlaA1 as ligand (diluted to 20 µg/mL), ∆N27 PlaS as analyte at 0, 0.156, 0.3125, 0.625, 1.25, 2.5 and 5 µM

## N-terminal truncated PlaS (∆N27 PlaS) from Serratia marcescens, purified (domain or fragment)
  Kd: 8.49 nM
  koff: 1.26e-05 s⁻¹
  kon: 1480 M⁻¹ s⁻¹

Source: publication PMC11199421
